The target in this assay is CD38 (UniProt P28907). The assay can be described thus: cell-based or functional assay.

With daratumumab (antibody), the reduction in detectable CD38+ pbNK cell counts against the control condition turned out to be 21 fold.
